Measurements published in the supplement of paper PMC9112550, “Optimization of the antimicrobial peptide Bac7 by deep mutational scanning” (BMC Biology, 2022).

Test system: Escherichia coli TOP10
Test: shrunken log2 fold change of peptide-encoding DNA abundance (4.5 h post-induction vs induction); higher = less antimicrobial activity (less host growth inhibition)
Settings: time post-induction: 4.5 h; library: site-saturation at positions 5, 18, 19, 20
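Further: peptides expressed intracellularly from a pBAD plasmid library in pooled LB shake-flask culture, induced with 0.3% L-arabinose, DNA abundance read by NGS, three biological replicates, DESeq2 with apeglm shrinkage.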

Row | Sequence | shrunken log2 fold change
1 | RRIRERPPRLPRPRPRPENQPRP | -0.174
2 | RRIRERPPRLPRPRPRPEPDPRP | 0.0002
3 | RRIRERPPRLPRPRPRPEPFPRP | -0.0469
4 | RRIRERPPRLPRPRPRPEPYPRP | -0.0697
5 | RRIRERPPRLPRPRPRPEQAPRP | 0.143
6 | RRIRERPPRLPRPRPRPEQFPRP | -0.0286
7 | RRIRERPPRLPRPRPRPEQSPRP | -0.0108
8 | RRIRERPPRLPRPRPRPERKPRP | 0.0538
9 | RRIRERPPRLPRPRPRPERQPRP | -0.0184
10 | RRIRERPPRLPRPRPRPETIPRP | -0.0222
11 | RRIRERPPRLPRPRPRPETYPRP | -0.152
12 | RRIRERPPRLPRPRPRPEVKPRP | -0.0524
13 | RRIRERPPRLPRPRPRPFASPRP | 0.00624
14 | RRIRERPPRLPRPRPRPFCGPRP | -0.058
15 | RRIRERPPRLPRPRPRPFCHPRP | -0.0629
16 | RRIRERPPRLPRPRPRPFDPPRP | 0.0149
17 | RRIRERPPRLPRPRPRPFDSPRP | -1.81
18 | RRIRERPPRLPRPRPRPFEIPRP | -0.203
19 | RRIRERPPRLPRPRPRPFEMPRP | -0.536
20 | RRIRERPPRLPRPRPRPFFHPRP | -0.264
21 | RRIRERPPRLPRPRPRPFFWPRP | 0.138
22 | RRIRERPPRLPRPRPRPFGCPRP | -0.0136
23 | RRIRERPPRLPRPRPRPFGDPRP | -0.0107
24 | RRIRERPPRLPRPRPRPFMAPRP | -0.891
25 | RRIRERPPRLPRPRPRPFNCPRP | 0.0173

Row | Sequence | shrunken log2 fold change
26 | RRIRERPPRLPRPRPRPFRHPRP | 0.0628
27 | RRIRERPPRLPRPRPRPFTIPRP | -0.162
28 | RRIRERPPRLPRPRPRPFVDPRP | -0.0208
29 | RRIRERPPRLPRPRPRPFWRPRP | 0.0935
30 | RRIRERPPRLPRPRPRPFWSPRP | -0.109
31 | RRIRERPPRLPRPRPRPGACPRP | 0.0171
32 | RRIRERPPRLPRPRPRPGADPRP | 0.146
33 | RRIRERPPRLPRPRPRPGAFPRP | -0.0461
34 | RRIRERPPRLPRPRPRPGAKPRP | 0.188
35 | RRIRERPPRLPRPRPRPGCCPRP | 0.131
36 | RRIRERPPRLPRPRPRPGDYPRP | -0.0324
37 | RRIRERPPRLPRPRPRPGFQPRP | -0.104
38 | RRIRERPPRLPRPRPRPGGLPRP | -0.00977
39 | RRIRERPPRLPRPRPRPGGQPRP | 0.171
40 | RRIRERPPRLPRPRPRPGGYPRP | -0.563
41 | RRIRERPPRLPRPRPRPGICPRP | -0.0398
42 | RRIRERPPRLPRPRPRPGIRPRP | -0.0819
43 | RRIRERPPRLPRPRPRPGIVPRP | -0.113
44 | RRIRERPPRLPRPRPRPGKSPRP | -0.00212
45 | RRIRERPPRLPRPRPRPGLQPRP | 0.103
46 | RRIRERPPRLPRPRPRPGLVPRP | -0.061
47 | RRIRERPPRLPRPRPRPGMPPRP | -0.0315
48 | RRIRERPPRLPRPRPRPGPAPRP | 0.439
49 | RRIRERPPRLPRPRPRPGPFPRP | -0.128
50 | RRIRERPPRLPRPRPRPGPHPRP | 0.00422

Row | Sequence | shrunken log2 fold change
51 | RRIRERPPRLPRPRPRPGPIPRP | 0.0264
52 | RRIRERPPRLPRPRPRPGQFPRP | -0.295
53 | RRIRERPPRLPRPRPRPGRDPRP | 0.419
54 | RRIRERPPRLPRPRPRPGRIPRP | -0.0858
55 | RRIRERPPRLPRPRPRPGRVPRP | 0.195
56 | RRIRERPPRLPRPRPRPGTWPRP | -0.0304
57 | RRIRERPPRLPRPRPRPGVHPRP | -0.139
58 | RRIRERPPRLPRPRPRPGWPPRP | 0.398
59 | RRIRERPPRLPRPRPRPGWSPRP | 0.135
60 | RRIRERPPRLPRPRPRPGWTPRP | 0.0709
61 | RRIRERPPRLPRPRPRPGYCPRP | -0.432
62 | RRIRERPPRLPRPRPRPGYGPRP | -0.165
63 | RRIRERPPRLPRPRPRPGYIPRP | -0.709
64 | RRIRERPPRLPRPRPRPGYWPRP | -0.0572
65 | RRIRERPPRLPRPRPRPHAMPRP | 0.0454
66 | RRIRERPPRLPRPRPRPHARPRP | 0.198
67 | RRIRERPPRLPRPRPRPHATPRP | 0.238
68 | RRIRERPPRLPRPRPRPHCEPRP | -0.056
69 | RRIRERPPRLPRPRPRPHCFPRP | 0.0259
70 | RRIRERPPRLPRPRPRPHCHPRP | -0.657
71 | RRIRERPPRLPRPRPRPHDEPRP | 0.00178
72 | RRIRERPPRLPRPRPRPHDNPRP | -0.227
73 | RRIRERPPRLPRPRPRPHDSPRP | -0.00973
74 | RRIRERPPRLPRPRPRPHELPRP | -0.0556
75 | RRIRERPPRLPRPRPRPHFCPRP | -0.117

Row | Sequence | shrunken log2 fold change
76 | RRIRERPPRLPRPRPRPHFFPRP | -0.154
77 | RRIRERPPRLPRPRPRPHGLPRP | -0.161
78 | RRIRERPPRLPRPRPRPHGPPRP | 0.139
79 | RRIRERPPRLPRPRPRPHIRPRP | -0.126
80 | RRIRERPPRLPRPRPRPHKEPRP | -0.189
81 | RRIRERPPRLPRPRPRPHKIPRP | -0.13
82 | RRIRERPPRLPRPRPRPHKNPRP | -0.206
83 | RRIRERPPRLPRPRPRPHKWPRP | -0.0895
84 | RRIRERPPRLPRPRPRPHNCPRP | -0.417
85 | RRIRERPPRLPRPRPRPHNDPRP | -0.335
86 | RRIRERPPRLPRPRPRPHNHPRP | -0.734
87 | RRIRERPPRLPRPRPRPHNTPRP | -0.731
88 | RRIRERPPRLPRPRPRPHQNPRP | 0.0506
89 | RRIRERPPRLPRPRPRPHRSPRP | -0.103
90 | RRIRERPPRLPRPRPRPHSHPRP | -0.269
91 | RRIRERPPRLPRPRPRPHSVPRP | -0.00145
92 | RRIRERPPRLPRPRPRPHTFPRP | -0.14
93 | RRIRERPPRLPRPRPRPHTQPRP | -0.362
94 | RRIRERPPRLPRPRPRPHTSPRP | -0.122
95 | RRIRERPPRLPRPRPRPHWLPRP | -0.128
96 | RRIRERPPRLPRPRPRPHYEPRP | -0.231
97 | RRIRERPPRLPRPRPRPHYSPRP | -0.16
98 | RRIRERPPRLPRPRPRPIAEPRP | 0.255
99 | RRIRERPPRLPRPRPRPIARPRP | -0.0237
100 | RRIRERPPRLPRPRPRPICIPRP | -0.0731

Row | Sequence | shrunken log2 fold change
101 | RRIRERPPRLPRPRPRPICWPRP | 0.0372
102 | RRIRERPPRLPRPRPRPIEAPRP | -0.0164
103 | RRIRERPPRLPRPRPRPIFVPRP | -0.295
104 | RRIRERPPRLPRPRPRPIIHPRP | -0.413
105 | RRIRERPPRLPRPRPRPIILPRP | -0.136
106 | RRIRERPPRLPRPRPRPIITPRP | -0.867
107 | RRIRERPPRLPRPRPRPILFPRP | -0.57
108 | RRIRERPPRLPRPRPRPILPPRP | -0.182
109 | RRIRERPPRLPRPRPRPIMYPRP | -1.08
110 | RRIRERPPRLPRPRPRPINKPRP | -0.506
111 | RRIRERPPRLPRPRPRPIPKPRP | 0.65
112 | RRIRERPPRLPRPRPRPIPSPRP | -0.109
113 | RRIRERPPRLPRPRPRPIQNPRP | 0.0753
114 | RRIRERPPRLPRPRPRPIQRPRP | 0.146
115 | RRIRERPPRLPRPRPRPIQTPRP | 0.0703
116 | RRIRERPPRLPRPRPRPISGPRP | -0.564
117 | RRIRERPPRLPRPRPRPISHPRP | -0.678
118 | RRIRERPPRLPRPRPRPISMPRP | 2.71
119 | RRIRERPPRLPRPRPRPISPPRP | -0.356
120 | RRIRERPPRLPRPRPRPISWPRP | -0.246
121 | RRIRERPPRLPRPRPRPITPPRP | -0.628
122 | RRIRERPPRLPRPRPRPITQPRP | 0.0291
123 | RRIRERPPRLPRPRPRPITSPRP | 0.0102
124 | RRIRERPPRLPRPRPRPIYCPRP | -0.143
125 | RRIRERPPRLPRPRPRPKAQPRP | 0.221

Row | Sequence | shrunken log2 fold change
126 | RRIRERPPRLPRPRPRPKATPRP | 0.205
127 | RRIRERPPRLPRPRPRPKDQPRP | 0.188
128 | RRIRERPPRLPRPRPRPKGGPRP | -0.0194
129 | RRIRERPPRLPRPRPRPKHTPRP | -0.127
130 | RRIRERPPRLPRPRPRPKIKPRP | -0.6
131 | RRIRERPPRLPRPRPRPKKMPRP | -0.478
132 | RRIRERPPRLPRPRPRPKKWPRP | 2.71
133 | RRIRERPPRLPRPRPRPKMFPRP | -0.000277
134 | RRIRERPPRLPRPRPRPKMKPRP | -0.226
135 | RRIRERPPRLPRPRPRPKPPPRP | 0.242
136 | RRIRERPPRLPRPRPRPKPWPRP | 0.287
137 | RRIRERPPRLPRPRPRPKPYPRP | 0.082
138 | RRIRERPPRLPRPRPRPKTQPRP | -0.102
139 | RRIRERPPRLPRPRPRPKTRPRP | -0.0349
140 | RRIRERPPRLPRPRPRPKWQPRP | -0.0355
141 | RRIRERPPRLPRPRPRPLASPRP | 0.16
142 | RRIRERPPRLPRPRPRPLCLPRP | -0.679
143 | RRIRERPPRLPRPRPRPLDHPRP | -0.155
144 | RRIRERPPRLPRPRPRPLDSPRP | -0.344
145 | RRIRERPPRLPRPRPRPLENPRP | 0.0225
146 | RRIRERPPRLPRPRPRPLEQPRP | -0.0811
147 | RRIRERPPRLPRPRPRPLFFPRP | -0.225
148 | RRIRERPPRLPRPRPRPLHDPRP | 0.0501
149 | RRIRERPPRLPRPRPRPLIDPRP | -0.352
150 | RRIRERPPRLPRPRPRPLKCPRP | -0.11
